Paper PMC314469, “Protein Interaction Networks by Proteome Peptide Scanning” (PLoS Biology, 2004)

T1: amphyphisin SH3 (AMPH_HUMAN), P49418
T1 chain: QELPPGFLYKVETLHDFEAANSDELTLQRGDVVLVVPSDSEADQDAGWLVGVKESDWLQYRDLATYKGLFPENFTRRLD


Tests used:
[1] = molecular target: T1, amphyphisin SH3 (AMPH_HUMAN), P49418; experiment: SPOT array
[2] = molecular target: endophilin SH3 (SH3G2_HUMAN), Q99962; experiment: SPOT array

| Binder | normalised SPOT signal, Boehringer light units (BLU); mean over the file's lines of this peptide [1] | normalised SPOT signal, Boehringer light units (BLU); mean over the file's lines of this peptide [2] |
| --- | --- | --- |
| TPNPLERPIKMGWL [P42331 33-46] | 94 | 59.1 |
| SEVPLKRPRLDKNS [Q9BZW3 294-307] | 45.5 | 65.5 |
| TRYMFSRPFRKHGV [P46778 10-23] | 2180 | 534 |
| TPSELERPSRMVSR [Q14068 72-85] | 772 | 29 |
| TPLSPLKPPRMDTA [Q9H898 117-131] | 334 | 56.4 |
| TPDLLPRPPRLLLL [Q9NRA0 137-150] | 830 | 94.4 |
| TRTDPTRPIRTPVI [Q9ULT9 312-325] | 568 | 96.3 |
| TPTVPLKPPPPLTL [Q9HD71 354-368] | 39.3 | 904 |
| TRVQPRRPTKGTHR [Q96EK0 35-48] | 38 | 138 |
| TRRVLLRPEKRPPV [P34969 436-449] | 177 | 123 |
| TRWPPSRPPPPSPF [Q9NP08 321-335] | 363 | 7730 |
| SFHSPRRPYASPLL [P57073 407-420] | 71 | 1100 |
| SEMLIKRPSKVKTI [Q8WV92 138-151] | 62.6 | 48.1 |
| TRYSPYRPYRSVHQ [O60281 946-959] | 1000 | 913 |
| TRPPPIRPPFSHPL [P58840 117-131] | 567 | 8780 |
| TQISLKRPRHRSVG [Q9P2Z0 180-193] | 6.5 | 27.6 |
| TPPIPSKPPGGFGK [Q9H462 843-857] | 41.7 | 995 |
| TPKPPKRPRLQRPA [Q9NWH1 363-376] | 381 | 8220 |
| TRGRPTRPPTRPPT [Q96F98 1-15] | 913 | 8360 |
| TPGEFRRPRLASFG [Q14678 130-143] | 44.3 | 720 |
| TPPDPPRPKRRSHS [Q9ULT1 709-722] | 2330 | 202 |

| Binder | normalised SPOT signal, Boehringer light units (BLU); mean over the file's lines of this peptide [1] | normalised SPOT signal, Boehringer light units (BLU); mean over the file's lines of this peptide [2] |
| --- | --- | --- |
| TQPVLKRPRHVHSH [Q9BZH3 389-402] | 46.6 | 60.5 |
| TPPAFIRPTRKLDD [Q9UPV7 127-140] | 173 | 146 |
| TPVSLGRPERYRRH [Q9GZM7 384-397] | 644 | 398 |
| TSAPPSRPPPPRAT [Q9UKN4 408-422] | 5540 | 14100 |
| TRSPPPRPPPPAIN [Q9BQL3 97-111] | 1400 | 13300 |
| TRSVLKRPERSQEE [P30304 268-281] | 89.1 | 54.1 |
| TRDDPYRPAKPVPT [O14730 137-150] | 4.8 | 68.1 |
| TPRGPRRPSGPAEL [Q9BUY9 649-662] | 31.6 | 30 |
| TQSLPTRPPTFPPT [Q05707 817-831] | 78.8 | 1190 |
| TPLSLKRPPPYDAV [Q9P242 471-484] | 19.2 | 67.5 |
| TPPQPKRPRPGVSK [Q9BR39 363-376] | 343 | 253 |
| TRPPPIRPPFSHPI [P10323 306-320] | 804 | 10400 |
| SGATLKRPMEFEAA [Q9H9L7 3-16] | 31.6 | 0 |
| TREALSRPARTAPL [Q13424 330-343] | 440 | 216 |
| TPRKILRPTKETSE [Q9BXX2 182-195] | 173 | 30.9 |
| TRKGPKRPQQPNPP [Q16632 107-120] | 46.7 | 2280 |
| TPPLPRRPRKGSSE [Q9H0X6 10-23] | 2900 | 2360 |
| TRPKPLKPPSDLSM [P33121 45-59] | 90.5 | 451 |
| TRKELERPIKVPVV [P82251 399-412] | 0 | 324 |
| TPRPLARPARPNLS [Q9Y6C2 143-156] | 3020 | 610 |
| TRESIVRPSRRGGI [Q14333 228-241] | 1320 | 89.5 |
